The labels stand for the following.
B1: Azoarcus group I ribozyme (parent)
chain: GUGCCUUGCGCCGGGAAACCACGCAAGGGAUGGUGUCAAAUUCGGCGAAACCUAAGCGCCCGCCCGGGCGUAUGGCAACGCCGAGCCAAGCUUCGGCGCCUGCGCCGAUGAAGGUGUAGAGACUAGACGGCACCCACCUAAGGCAAACGCUAUGGUGAAGGCAUAGUCCAGGGAGUGGCGAAAGUCACACAAACCGG

Variants of B1 are the subject of this series. Briefly: reverse-splicing fitness (ratio to wild type); higher = more active; in vitro selection; Mg2+ level not given. A digest of the protocol: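 An in vitro group I ribozyme library with randomized positions was T7-transcribed and gel-purified. In triplicate, 10 pmol RNA in EPPS pH 7.5 was reacted with 50 pmoles of a 30-nt RNA substrate for 1 h at 37 °C across several added MgCl2 levels (1–48 mM), then stopped with EDTA. Products were reverse transcribed from a substrate-complementary primer, PCR-amplified and sequenced (HiSeq 4000). Fitness is a variant's read proportion after selection over that before, normalised to wild type.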
On to C82A A111C A120C C150G U176A, for which the reverse-splicing fitness was 0.00563.

For the variant C82A A111C A120G A145G C150U C169U U176A, the reverse-splicing fitness amounted to 0.0155.

With C82A A111C A120G A145G C150U C169U U176C, the reverse-splicing fitness came to 0.0131.

Take C82A A111C A120G A145G C150U C169U U176G: the reverse-splicing fitness is 0.00525.

Turning to C82A A111C A120C C150G C169A U176G, the reverse-splicing fitness was 0.00778.

On to C82A A111C A120C C150G C169A U176C, for which the reverse-splicing fitness is 0.0121.

C82A A111C A120C C150G C169A U176A: the reverse-splicing fitness amounted to 0.00991.

As to C82A A111C A120G A145C C150A C169A, the reverse-splicing fitness amounted to 0.00794.

Take C82A A111C A120G A145C C150A C169G: the reverse-splicing fitness amounted to 0.00754.

Consider C82A A111C A120G A145C C150A C169U, for which the reverse-splicing fitness is 0.00671.

With C82A A111C A120G A145C C150G C169A U176G, the reverse-splicing fitness turned out to be 0.00531.

C82A A111C A120G A145C C150G C169A U176C: the reverse-splicing fitness stood at 0.00612.

With C82A A111C A120G A145C C150G C169A U176A, the reverse-splicing fitness is 0.00786.

C82A A111C A120C A145U C150G C169A: the reverse-splicing fitness is 0.00977.

Turning to C82A A111C A120C A145U C150G C169U, the reverse-splicing fitness was 0.01.

For C82A A111C A120C A145U C150G C169G, the reverse-splicing fitness turned out to be 0.00675.

Regarding C82A A111C A120C A145U U176A, the reverse-splicing fitness is 0.0147.

On to C82A A111C A120C A145U U176G, for which the reverse-splicing fitness was 0.00692.

With C82A A111C A120C A145U U176C, the reverse-splicing fitness was found to be 0.0164.

Turning to C82A A111C A120C C150U C169A, the reverse-splicing fitness was 0.0121.

On to C82A A111C A120C C150U C169G, for which the reverse-splicing fitness turned out to be 0.00849.

With C82A A111C A120C C150U C169U, the reverse-splicing fitness amounted to 0.0115.

Consider C82A A111C A120G A145C U176A, for which the reverse-splicing fitness is 0.0123.

With C82A A111C A120G A145C U176C, the reverse-splicing fitness worked out at 0.0134.

In the case of C82A A111C A120G A145C U176G, the reverse-splicing fitness was 0.00486.

Turning to C82A A111C A120C A145G C150A C169G, the reverse-splicing fitness was determined as 0.00833.

With C82A A111C A120C A145G C150A C169A, the reverse-splicing fitness was 0.0106.

Turning to C82A A111C A120C A145G C150A C169U, the reverse-splicing fitness stood at 0.00994.

For C82A A111C A120G A145C C150U C169A U176G, the reverse-splicing fitness is 0.00632.

For C82A A111C A120G A145C C150U C169A U176A, the reverse-splicing fitness came out at 0.0112.

Regarding C82A A111C A120G A145C C150U C169A U176C, the reverse-splicing fitness was found to be 0.00619.

Take C82A A111C A120G A145G C150G U176G: the reverse-splicing fitness worked out at 0.00573.

As for C82A A111C A120G A145G C150G U176A, the reverse-splicing fitness was determined as 0.00663.

Consider C82A A111C A120G A145G C150G U176C, for which the reverse-splicing fitness came out at 0.0111.

Turning to C82A A111C A120G A145C C150U C169G, the reverse-splicing fitness stood at 0.00775.

Regarding C82A A111C A120G A145C C150U C169A, the reverse-splicing fitness was found to be 0.00801.

As to C82A A111C A120G A145C C150U C169U, the reverse-splicing fitness came to 0.00644.

Turning to C82A A111C A120C A145U C150A C169A U176G, the reverse-splicing fitness turned out to be 0.00859.

For C82A A111C A120C A145U C150A C169A U176C, the reverse-splicing fitness was 0.0154.

Consider C82A A111C A120C A145U C150A C169A U176A, for which the reverse-splicing fitness was 0.0155.

C82A A111C A120C A145U C150G C169A U176G: the reverse-splicing fitness is 0.00744.

Consider C82A A111C A120C A145U C150G C169A U176A, for which the reverse-splicing fitness turned out to be 0.00956.

Regarding C82A A111C A120C A145U C150G C169A U176C, the reverse-splicing fitness amounted to 0.0125.

On to C82A A111C A120C C169G U176A, for which the reverse-splicing fitness is 0.0174.

C82A A111C A120C C169G U176C: the reverse-splicing fitness amounted to 0.0233.

In the case of C82A A111C A120C C169G U176G, the reverse-splicing fitness was 0.00756.

For C82A A111C A120C A145G C150G U176G, the reverse-splicing fitness was determined as 0.00679.

Turning to C82A A111C A120C A145G C150G U176C, the reverse-splicing fitness was determined as 0.0113.

As for C82A A111C A120C A145G C150G U176A, the reverse-splicing fitness came to 0.00652.

Take C82A A111C A120C A145G C150U C169G U176C: the reverse-splicing fitness is 0.0166.

On to C82A A111C A120C A145G C150U C169G U176A, for which the reverse-splicing fitness stood at 0.0127.

C82A A111C A120C A145G C150U C169G U176G: the reverse-splicing fitness is 0.00711.

On to C82A A111C A120G A145G C169G U176A, for which the reverse-splicing fitness came out at 0.0211.

For the variant C82A A111C A120G A145G C169G U176G, the reverse-splicing fitness was determined as 0.00491.

In the case of C82A A111C A120G A145G C169G U176C, the reverse-splicing fitness turned out to be 0.0266.

Regarding C82A A111C A120C C150U C169U U176C, the reverse-splicing fitness stood at 0.0139.

Turning to C82A A111C A120C C150U C169U U176G, the reverse-splicing fitness was 0.0075.

As to C82A A111C A120C C150U C169U U176A, the reverse-splicing fitness was 0.0177.

For the variant C82A A111C A120C A145U C150G C169G U176A, the reverse-splicing fitness is 0.00819.

C82A A111C A120C A145U C150G C169G U176G: the reverse-splicing fitness turned out to be 0.00725.

Take C82A A111C A120C A145U C150G C169G U176C: the reverse-splicing fitness came out at 0.00621.

Turning to C82A A111C A120G A145G C150G C169G, the reverse-splicing fitness amounted to 0.00706.

Consider C82A A111C A120G A145G C150G C169U, for which the reverse-splicing fitness is 0.00877.

As for C82A A111C A120G A145G C150G C169A, the reverse-splicing fitness amounted to 0.00875.

Consider C82A A111C A120C A145U C150G U176A, for which the reverse-splicing fitness was 0.00604.

With C82A A111C A120C A145U C150G U176G, the reverse-splicing fitness is 0.00392.

Turning to C82A A111C A120C A145U C150G U176C, the reverse-splicing fitness was determined as 0.00803.

In the case of C82A A111C A120G A145G C150U U176A, the reverse-splicing fitness was determined as 0.00883.

Regarding C82A A111C A120G A145G C150U U176G, the reverse-splicing fitness turned out to be 0.00706.

On to C82A A111C A120G A145G C150U U176C, for which the reverse-splicing fitness was 0.0186.

C82A A111C A120G A145G C150A C169U: the reverse-splicing fitness was 0.00923.

For the variant C82A A111C A120G A145G C150A C169G, the reverse-splicing fitness worked out at 0.00887.

With C82A A111C A120G A145G C150A C169A, the reverse-splicing fitness came out at 0.0099.

C82A A111C A120C A145U C169G U176A: the reverse-splicing fitness was found to be 0.0151.

With C82A A111C A120C A145U C169G U176G, the reverse-splicing fitness is 0.00709.

Turning to C82A A111C A120C A145U C169G U176C, the reverse-splicing fitness turned out to be 0.0178.

Regarding C82A A111C A120C C150U U176C, the reverse-splicing fitness is 0.0187.

On to C82A A111C A120C C150U U176G, for which the reverse-splicing fitness amounted to 0.0074.

Consider C82A A111C A120C C150U U176A, for which the reverse-splicing fitness was determined as 0.0123.

In the case of C82A A111C A120G, the reverse-splicing fitness was 0.0149.

As for C82A A111C A120C A145G C150U C169U, the reverse-splicing fitness came to 0.0133.

Regarding C82A A111C A120C A145G C150U C169G, the reverse-splicing fitness stood at 0.00829.

Take C82A A111C A120C A145G C150U C169A: the reverse-splicing fitness was 0.0108.

Source of the values: the RNAGym collection of RNA variant scans (doi:10.1093/molbev/msab373).
